Measured values taken from the Immune Epitope Database (IEDB).

Legend:
[1] = molecular target: HLA-A*01:01; test: IEDB peptide-MHC binding, purified MHC/direct/fluorescence; filed as Kd, often an IC50 or EC50 that approximates it; ≥ and ≤ were set here for values at or beyond the usual limits of such assays
[2] = molecular target: HLA-A*02:01; test: as above
[3] = molecular target: HLA-A*03:01; test: as above
[4] = molecular target: HLA-A*11:01; test: as above
[5] = molecular target: HLA-A*26:01; test: as above
[6] = molecular target: HLA-A*31:01; test: as above
[7] = molecular target: HLA-A*69:01; test: as above
[8] = molecular target: HLA-B*07:02; test: as above
[9] = molecular target: HLA-B*08:01; test: as above
[10] = molecular target: HLA-B*15:01; test: as above
[11] = molecular target: HLA-B*27:05; test: as above
[12] = molecular target: HLA-B*35:01; test: as above
[13] = molecular target: HLA-B*40:01; test: as above
[14] = molecular target: HLA-B*44:02; test: as above
[15] = molecular target: HLA-B*58:01; test: as above
[16] = molecular target: HLA-A*02:01; test: IEDB peptide-MHC binding, purified MHC/competitive/fluorescence; ≥ and ≤ were set here for values at or beyond the usual limits of such assays; details: source organism: Zaire ebolavirus
[17] = molecular target: HLA-B*08:01; test: as above; details: source organism: Zaire ebolavirus
[18] = molecular target: HLA-A*23:01; test: IEDB peptide-MHC binding, purified MHC/direct/fluorescence; filed as Kd, often an IC50 or EC50 that approximates it; ≥ and ≤ were set here for values at or beyond the usual limits of such assays; details: source organism: Amur virus
[19] = molecular target: HLA-A*24:02; test: as above; details: source organism: Amur virus
[20] = molecular target: HLA-A*24:03; test: as above
[21] = molecular target: HLA-C*03:03; test: as above; details: source organism: Mycobacterium tuberculosis str. Haarlem
[22] = molecular target: HLA-C*14:02; test: as above; details: source organism: Mycobacterium tuberculosis str. Haarlem
[23] = molecular target: HLA-C*15:02; test: as above; details: source organism: Mycobacterium tuberculosis str. Haarlem
[24] = molecular target: HLA-A*11:01; test: IEDB peptide-MHC binding, purified MHC/competitive/fluorescence; ≥ and ≤ were set here for values at or beyond the usual limits of such assays; details: source organism: Zaire ebolavirus
[25] = source organism: Vibrio cholerae
[26] = source organism: Giardia lamblia ATCC 50803

YFRNSGMTY
Kd [1, 25]: 1460 nM | Kd [2, 25]: ≥ 20 µM | Kd [3, 25]: ≥ 20 µM | Kd [4, 25]: ≥ 20 µM | Kd [5, 25]: ≥ 20 µM | Kd [6, 25]: ≥ 20 µM | Kd [7, 25]: ≥ 20 µM | Kd [8, 25]: ≥ 20 µM | Kd [9, 25]: ≥ 20 µM | Kd [10, 25]: 85.3 nM | Kd [11, 25]: ≥ 20 µM | Kd [12, 25]: 110 nM | Kd [13, 25]: ≥ 20 µM | Kd [14, 25]: ≥ 20 µM | Kd [15, 25]: ≥ 20 µM

HILQKTERG
IC50 [16]: ≥ 99.6 µM | IC50 [17]: ≥ 365 µM

QYEKDPDEL
Kd [18]: 11.5 µM | Kd [19]: 4.65 µM | Kd ([20]; source organism: Amur virus): 13 µM

YHMMKDEPV
IC50 [16]: 42.3 µM | IC50 [17]: ≥ 178 µM

DTDISQLHH
Kd [1, 25]: 358 nM | Kd [2, 25]: ≥ 20 µM | Kd [3, 25]: ≥ 20 µM | Kd [4, 25]: ≥ 20 µM | Kd [20, 25]: ≥ 20 µM | Kd [5, 25]: ≥ 20 µM | Kd [6, 25]: ≥ 20 µM | Kd [7, 25]: ≥ 20 µM | Kd [8, 25]: ≥ 20 µM | Kd [9, 25]: ≥ 20 µM | Kd [10, 25]: ≥ 20000 nM | Kd [11, 25]: ≥ 20 µM | Kd [12, 25]: 542 nM | Kd [13, 25]: ≥ 20 µM | Kd [14, 25]: ≥ 20 µM | Kd [15, 25]: 2.68 µM

KLDSGAFTV
Kd [21]: ≥ 20 µM

PTKCGENLY
Kd [1, 26]: 7760 nM | Kd [2, 26]: ≥ 20 µM | Kd [3, 26]: ≥ 20 µM | Kd [4, 26]: ≥ 20 µM | Kd [20, 26]: ≥ 20 µM | Kd [5, 26]: ≥ 20 µM | Kd [6, 26]: ≥ 20 µM | Kd [7, 26]: 12.9 µM | Kd [8, 26]: ≥ 20 µM | Kd [9, 26]: ≥ 20 µM | Kd [10, 26]: 2360 nM | Kd [11, 26]: ≥ 20 µM | Kd [12, 26]: 5200 nM | Kd [13, 26]: ≥ 20 µM | Kd [14, 26]: ≥ 20 µM | Kd [15, 26]: ≥ 20 µM

RYVGLYLPF
Kd ([20]; source organism: Mycobacterium tuberculosis): 0.0002 µM | Kd [22]: ≤ 1 nM | Kd [23]: ≥ 20 µM

EVKKRDGVK
IC50 [24]: 66.4 µM | IC50 [17]: ≥ 211 µM
